Measured values: patent US6828304B1, “Peptides for treatment of cancer” (Dabur Research Foundation, priority 2000, dated 2004)
* marks the point of attachment. Butyryl = CCCC(=O)*

Key:
[1] = tested on: ECV304 (Endothelial) cells; test: MTT cytotoxicity assay, ECV304 cells; format: cell-based; conditions: 48 hours
Description: (§1) The cytotoxic effect of Lipo peptide analogs, DT-A1 (SEQ ID NO: 2), DT-B1 (SEQ ID NO: 3), DT-01 (SEQ ID NO: 4), DT-M1 (SEQ ID NO: 5) and DT-P1 (SEQ ID NO: 6) was studied by MTT assay which is based on the principle of uptake of MTT [3-[4,5-dimethylthiazol-2-yl]-2,5-diphenyl tetrazolium bromide], a tetrazolium salt by the metabolically active cells where it is metabolized by active mitochondria into a blue colored formazan product which can be read spectrophotometrically. Briefly, tumor cells PTC (primary colon) KB (Oral squamous), U87MG (Glioblastoma), HBL100 (Breast), HeP2 (Laryngeal), ECV304 (Endothelial), PA-1 (Ovary) and L132 (Lung) were incubated with the peptide analogs for 48 hours at 37° C. in a 96-well culture plate, followed by the addition of 100 μg MTT and _further incubation of 1 hour. The formazan crystals formed inside the cells were dissolved with a detergent comprising 10% Sodium dodecyl sulfate and 0.01 N HCl and optical density read on a multiscan ELISA reader. The optical density was directly proportional to the number of proliferating and metabolically active cells.

[2] = tested on: HeP2 (Laryngeal) tumor cells; test: MTT cytotoxicity assay, HeP2 cells; format: cell-based; conditions: 48 hours
Description: as §1

PA-1 (Ovary) tumor cells = test: MTT cytotoxicity assay, PA-1 cells; format: cell-based; conditions: 48 hours
Description: as §1

[3] = tested on: KB (Oral squamous) tumor cells; test: MTT cytotoxicity assay, KB cells; format: cell-based; conditions: 48 hours
Description: as §1

[4] = tested on: human colon adenocarcinoma (PTC) xenografts; test: Antitumor activity in PTC xenografts in nude mice; format: in vivo
Protocol: The antitumor activity of DT-B1 (SEQ ID NO: 3) was studied in human colon adenocarcinoma (PTC) xenografts in nude mice. PTC tumor xenografts were grown in Balb/c a thymic mice by subcutaneous inoculation of a single cell suspension of PTC cells (15×10^6 cells/100 EL). The tumor bearing animals were divided into 2 groups of three animals each including one group comprising untreated control animals. Treatment with DT-B1 was initiated when the average tumor volumes, as measured using a vernier caliper, were between 1.3 cm^3. Solutions of DT-B1 was prepared at a concentration of 126 μg/ml and intravenously administered to the assigned group of tumor bearing animals at a dose of 12.6 μg/100 μL twice a day so that the total dose of 25.2 μg/day was administered to each animal. The treatment was continued for a period of 14 days.
The antitumor activity of the compounds was monitored by measuring tumor volumes every fourth day using the formula W*W*L*0.4 (W=smaller diameter, L=larger diameter). The percentage inhibition of tumor growth was calculated using the formula (1-tumor volume-treated/tumor volume-control)* 100.

L132 (Lung) tumor cells = test: MTT cytotoxicity assay, L132 cells; format: cell-based; conditions: 48 hours
Description: as §1

[5] = tested on: HBL100 (Breast) tumor cells; test: MTT cytotoxicity assay, HBL100 cells; format: cell-based; conditions: 48 hours
Description: as §1

[6] = tested on: PTC (primary colon) tumor cells; test: MTT cytotoxicity assay, PTC cells; format: cell-based, human; conditions: 48 hours
Description: as §1

[7] = tested on: U87MG (Glioblastoma) tumor cells; test: MTT cytotoxicity assay, U87MG cells; format: cell-based; conditions: 48 hours
Description: as §1

n-Butanoyl-Leu-Met-Tyr-Pro-Thr-Tyr-Leu-Lys-OH (Butyryl-LMYPTYLK-OH) [DT-B1]
Percentage cytotoxicity ([1]; 1 nM): 18.7 ± 5.3%
Percentage cytotoxicity ([1]; 10 nM): 19.9 ± 4.2%
Percentage cytotoxicity ([1]; 100 nM): 31.9 ± 2.8%
Percentage cytotoxicity ([1]; 1 μM): 25.8 ± 2.3%
Percentage cytotoxicity ([2]; 1 nM): 8.7 ± 1.5%
Percentage cytotoxicity ([2]; 10 nM): 22.9 ± 1.6%
Percentage cytotoxicity ([2]; 100 nM): 14.9 ± 5.3%
Percentage cytotoxicity ([2]; 1 μM): 12.9 ± 4.4%
Percentage cytotoxicity (PA-1 (Ovary) tumor cells; 1 nM): 43.9 ± 2.9%
Percentage cytotoxicity (PA-1 (Ovary) tumor cells; 10 nM): 45.8 ± 1.2%
Percentage cytotoxicity (PA-1 (Ovary) tumor cells; 100 nM): 38.5 ± 1.6%
Percentage cytotoxicity (PA-1 (Ovary) tumor cells; 1 μM): 33.7 ± 1.6%
Percentage cytotoxicity ([3]; 1 nM): 21.9 ± 0.5%
Percentage cytotoxicity ([3]; 10 nM): 25.9 ± 4.1%
Percentage cytotoxicity ([3]; 100 nM): 18.9 ± 3.2%
Percentage cytotoxicity ([3]; 1 μM): 14.8 ± 2.3%
percentage inhibition of tumor growth as compared to controls ([4]; day 20, intravenous 12.6 μg twice a day (25.2 μg/day) for 14 days, PTC xenografts in nude mice): 95.85%
antitumor activity on PTC xenografts (in words) ([4]; intravenous 25.2 μg/day for 14 days, tumor kinetics till day 20): significant antitumor activity
Percentage cytotoxicity (L132 (Lung) tumor cells; 1 nM): 13.9 ± 1.9%
Percentage cytotoxicity (L132 (Lung) tumor cells; 10 nM): 26.8 ± 1.9%
Percentage cytotoxicity (L132 (Lung) tumor cells; 100 nM): 10.7 ± 2.6%
Percentage cytotoxicity (L132 (Lung) tumor cells; 1 μM): 11.8 ± 2.3%
Percentage cytotoxicity ([5]; 1 nM): 33.0 ± 1.5%
Percentage cytotoxicity ([5]; 10 nM): 34.8 ± 1.8%
Percentage cytotoxicity ([5]; 100 nM): 33.9 ± 2.8%
Percentage cytotoxicity ([5]; 1 μM): 32.8 ± 2.2%
Percentage cytotoxicity ([6]; 1 nM): 36 ± 1.0%
Percentage cytotoxicity ([6]; 10 nM): 44 ± 1.3%
Percentage cytotoxicity ([6]; 100 nM): 48 ± 1.7%
Percentage cytotoxicity ([6]; 1 μM): 31 ± 1.5%
Percentage cytotoxicity ([7]; 1 nM): 33.9 ± 0.6%
Percentage cytotoxicity ([7]; 10 nM): 39.7 ± 2.7%
Percentage cytotoxicity ([7]; 100 nM): 30.7 ± 1.7%
Percentage cytotoxicity ([7]; 1 μM): 20.6 ± 1.7%
